The values that follow come from PMC11245102 (bioRxiv, 2024).

Series [1] has as its target non-mitochondrial CS (nmCS) from Chlamydomonas reinhardtii (Chlamydomonas reinhardtii). The series can be described thus: mass photometry.
Series [2] has as its target type II CS from C. woesi (C. woesi). Description: mass photometry.
For series [3], the target named is non-mitochondrial CS (nmCS) from Ananas comosus (Ananas comosus). Description: mass photometry.
Series [4] shares this target. Description: mass photometry. The source holds these as a separate data set.
Series [5] shares this target. Description: cryo-EM structure.
The target of series [6] is CS from a Myxococcota species (type III CS) (a Myxococcota species). Description: mass photometry.
Series [7] deals with citrate synthase from M. sulfidovorans W150A (M. sulfidovorans). The series can be described thus: mass photometry.
For series [8], the target named is type II CS from F. taffensis (F. taffensis). The series can be described thus: mass photometry.
For series [9], the target named is type III CS from Cyanobium sp. PCC 7001 (Cyanobium sp. PCC 7001). The series can be described thus: mass photometry.
Series [10] addresses non-mitochondrial CS (nmCS) from C. fasciculata (C. fasciculata). The series can be described thus: mass photometry.
The series “mass photometry” deals with the molecule itself. Description: mass photometry.

Several values for one entry are separate records, joined by “and”; a condition that tells them apart may be missing. Equal entries are not always repeated.

In general, stoichiometry N refers to the number of molecules, sites or subunits per partner or assembly. The molecule “non-mitochondrial CS (nmCS) from Chlamydomonas reinhardtii (enzyme)” gave a stoichiometry N in [1] of 2. In series [2], type II CS from C. woesi (enzyme) had a stoichiometry N of 2. On to “non-mitochondrial CS (nmCS) from Ananas comosus (enzyme)”, for which the stoichiometry N in series [3] was 6 and 8; in series [4], 8; in [5], 8. With “CS from a Myxococcota species (type III CS) (enzyme)”, the stoichiometry N in series [6] came out at 2. In series [7], “citrate synthase from M. sulfidovorans W150A (enzyme)” displayed a stoichiometry N of 2.

In series [8], type II CS from F. taffensis (enzyme) returned a stoichiometry N of 2. Molecule “type III CS from Cyanobium sp. PCC 7001 (enzyme)” displayed a stoichiometry N in series [9] of 2. Take “non-mitochondrial CS (nmCS) from C. fasciculata (enzyme)”: the stoichiometry N in series [10] amounted to 6.

B1: non-mitochondrial CS (nmCS) from P. olsenii (enzyme)
chain: MDRLNTVAAHVAPTLTITDNRSGKKIDVKVKDGTIRATDLKQLGIQTYDPGYMNTTCCVSRISFIDGNRGVLRYRGYPIEQLAQDSSFTEVAFLLQYGELPTRGQLTQWEQDLMRHSMLHQDVATLTSAFRYDAHPMGMFVSAMAALGTLHPETNPALTSQNIYKDKAVRNKEIARILGSATTLAAMAYRHRMGRPFNTPNSDLGYTENFLYMLDVSHEGTSYRPHPKLVKALDVLFVLHAEHELNCSTSAMRHLTSSNVDVYTACAAAAGALYGPRHGGANEAVLRMLERIGSIENVPTFVDKVKQRKELLMGFGHRVYKHYDPRATIVRKIAEDVFEICGREPLIEVAMDLERIALSDPYFKDRKLYPNVDFYSGLIYKAMGFPTDMFPILFTVPRLAGWLAHWSEWIDDPENRIYRPFQVYKGYDKRDYVQVDERSEKVHSKELTVKRSAFNRRRDASLQSAAADRSEYEWIKD
For B1, the “stoichiometry N” value in the series “mass photometry” was 6.

B2: CS from A. comosus Δ487–513 (domain or fragment)
chain: MEGAFDHSALARARLAVLSGHLAAVSAAGGGASPLERSPVSVQEIPPPPRNLGGSLAVIDGRSGKKFEFKISDEGTVRATDFKKITTGKNDKGLKLYDPGYLNTAPVRSSICYIDGDEGILRYRGYPIEELAESSSYPEVAYLLMYGNLPSKSQLADWEFAISQHSAVPQGVLDIIQGMPHDAHPMGVLVCAMSALSVFHPDANPALRGQDLYKSKQLRDKQIVRILGKVPTIAAAAYLRLAGRPPVLPSNNFSYSENFLYMLDSLGNRSYKPNTRLARVLDILFILHAEHEMNCSTAAARHLASSGVDVFTALAGAVGALYGPLHGGANEAVLKMLNEIGTVENIPDFIEGVKNRKRKMSGFGHRVYKNYDPRAKVIRKLAEEVFSIVGRDPLIEVAIALEKAALSDEYFIKRKLYPNVDFYSGLIYRAMGFPTEFFPVLFAIPRMAGYLAHWRESLDDPDTKIMRPQQVYTGVWLRHYTPLQER
B2: in the series “mass photometry”, the “stoichiometry N” value amounted to 2.
